Experimental data as given in US20090304746A1.
Where two headings read alike, the source gives them in different places. No end group written: not given here.

Legend:
HLA-B*5301 (human) = conditions: remark: other sources report otherwise
HLA-B*5401 (human) = conditions: remark: other sources report otherwise
HLA-B*51 (human) = conditions: remark: other sources report otherwise
HLA-B*3501 (human) [1] = conditions: remark: other sources report otherwise
[2] = biological target: HLA-DR3 (DRB1*0301) (human); assay: competition with 125I-labeled probe for purified HLA-DR3, gel filtration; conditions: remark: other sources report otherwise
HLA-A*1101 (human) [3] = biological target: HLA-A*1101 (human)
HLA-A*1101 (human) [4] = biological target: HLA-A*1101 (human); remark: listed apart in the source
HLA-A*3301 (human) [5] = biological target: HLA-A*3301 (human)
HLA-A*3101 (human) [6] = assay: competition with 125I-labelled standard peptide on purified HLA, gel filtration
HLA-A*0301 (human) [7] = assay: as above
HLA-A*6801 (human) [8] = assay: as above
HLA-A*0201 (human) [9] = assay: competition with 125I-labeled probe for purified HLA, gel filtration
[10] = biological target: HLA-A*0202 (human), P30375; assay: as above
HLA-A*6802 (human) = assay: as above
HLA-A*3301 (human) [11] = assay: competition with 125I-labeled standard peptide on purified HLA, gel filtration
HLA-A*3101 (human) [12] = assay: as above
HLA-A*0301 (human) [13] = assay: as above
HLA-A*6801 (human) [14] = assay: as above
HLA-A*1101 (human) [15] = assay: as above
[16] = biological target: T1, HLA-DR5w11 (DRB1*1101) (human)
T1 chain 1: not shown
T1 chain 2: not shown

[17] = biological target: T2, HLA-DR9 (DRB1*0901) (human)
T2 chain 1: not shown
T2 chain 2: not shown

[18] = biological target: T3, HLA-DR6w19 (DRB1*1302) (human)
T3 chain 1: not shown
T3 chain 2: not shown

[19] = biological target: T4, HLA-DR8w2 (DRB1*0802) (human)
T4 chain 1: not shown
T4 chain 2: not shown

[20] = biological target: T5, HLA-DR7 (DRB1*0701) (human)
T5 chain 1: not shown
T5 chain 2: not shown

[21] = biological target: T6, HLA-DR1 (DRB1*0101) (human); assay: purified HLA-DR, inhibition of 125I standard peptide, gel filtration; conditions: remark: other sources report otherwise
T6 chain 1: not shown
T6 chain 2: not shown

[22] = biological target: T7, HLA-DR4w15 (DRB1*0405) (human); assay: as above; conditions: remark: other sources report otherwise
T7 chain 1: not shown
T7 chain 2: not shown

[23] = biological target: T8, HLA-DR3 (DRB1*0301) (human); assay: as above; conditions: remark: other sources report otherwise
T8 chain 1: not shown
T8 chain 2: not shown

HLA-A*2401 (human) = assay: competition with 125I-labelled standard peptide for purified HLA, gel filtration
HLA-B*0702 (human) = conditions: remark: other sources report otherwise
HLA-B*3501 (human) [24] = conditions: remark: other sources report otherwise; remark: listed apart in the source
[25] = biological target: HLA-A*03 (purified HLA class I molecule) (human)
HLA-A*1101 (human) [26] = biological target: HLA-A*1101 (human); remark: listed apart in the source
[27] = biological target: HLA-A*6801 (purified HLA class I molecule) (human); conditions: remark: other sources report otherwise
[28] = biological target: T2, HLA-DR9 (DRB1*0901) (human); assay: purified HLA-DR, inhibition of 125I standard peptide, gel filtration
[29] = biological target: T4, HLA-DR8w2 (DRB1*0802) (human); assay: as above
[30] = biological target: T5, HLA-DR7 (DRB1*0701) (human); assay: as above
[31] = biological target: T9, HLA-DR5w12 (DRB1*1201) (human); assay: as above
T9 chain 1: not shown
T9 chain 2: not shown

HLA-A*3101 (human) [32] = assay: competition with 125I-labelled standard peptide for purified HLA, gel filtration
HLA-A*6801 (human) [33] = assay: as above
HLA-A*0201 (human) [34] = assay: as above
HLA-A*0206 (human) = assay: as above

NPAIASLMAF (modifications not checked) [Peptide 15.0237, HCV NS4 1789]
IC50 (HLA-B*5301 (human)): > 30 µM | IC50 (HLA-B*5401 (human)): > 30 µM | IC50 (HLA-B*51 (human)): 5 µM | IC50 (HLA-B*3501 (human) [1]): 9 µM

GMQLAEQFKQKALGL (not fully specified) [HCV 1726 DR3B-motif 15-mer […] (core …)]
binding affinity ratio (IC50 of standard peptide / IC50 of test peptide) [2]: 0.019

EGAVQWMNR (modifications not checked) [… (HCV polyprotein position 1915)]
binding affinity ratio (IC50 of standard peptide / IC50 of test peptide) (HLA-A*1101 (human) [3]): 0.0014

LSNSLLRHH (modifications not checked)
binding affinity ratio (IC50 of standard peptide / IC50 of test peptide) (HLA-A*1101 (human) [4]): 0.0001

PTGSGKSTK (modifications not checked) [HCV peptide … (polyprotein position 1236)]
binding affinity ratio (IC50 of standard peptide / IC50 of test peptide) (HLA-A*3301 (human) [5]): 0.0006 | binding affinity ratio (IC50 of standard peptide / IC50 of test peptide) (HLA-A*3101 (human) [6]): 0.0008 | binding affinity ratio (IC50 of standard peptide / IC50 of test peptide) (HLA-A*0301 (human) [7]): 0.0002 | binding affinity ratio (IC50 of standard peptide / IC50 of test peptide) (HLA-A*6801 (human) [8]): 0.0002

YLVAYQATV (modifications not checked) [HCV NS4 1590 peptide 1013.02]
IC50 (HLA-A*0201 (human) [9]): 0.02 µM | IC50 [10]: 0.039 µM | IC50 (HLA-A*6802 (human)): 0.033 µM

VAYQATVCAR (modifications not checked) [HCV peptide … (HCV polyprotein position 1592)]
binding affinity ratio (IC50 of standard peptide / IC50 of test peptide) (HLA-A*3301 (human) [11]): 0.072 | binding affinity ratio (IC50 of standard peptide / IC50 of test peptide) (HLA-A*3101 (human) [12]): 0.068 | binding affinity ratio (IC50 of standard peptide / IC50 of test peptide) (HLA-A*0301 (human) [13]): 0.0005 | binding affinity ratio (IC50 of standard peptide / IC50 of test peptide) (HLA-A*6801 (human) [14]): 0.028 | binding affinity ratio (IC50 of standard peptide / IC50 of test peptide) (HLA-A*1101 (human) [15]): 0.0036

CGPVYCFTPSPVVVG (modifications not checked) [HCV NS1/E2 506 peptide 1283.11]
binding affinity ratio (relative to standard peptide) [16]: 0.0005 | binding affinity ratio (relative to standard peptide) [17]: 0.43 | binding affinity ratio (relative to standard peptide) [18]: -0.0001 | binding affinity ratio (relative to standard peptide) [19]: 0.0011 | binding affinity ratio (relative to standard peptide) [20]: 0.27

GSSYGFQYSPGQRVE (modifications not checked)
relative binding (IC50 of standard peptide / IC50 of test peptide) [21]: 0.46 | relative binding (IC50 of standard peptide / IC50 of test peptide) [22]: 0.051 | relative binding (IC50 of standard peptide / IC50 of test peptide) [23]: 0.0007

NIVDVQYLY (modifications not checked)
binding affinity ratio (IC50 of standard peptide / IC50 of test peptide) (HLA-A*2401 (human)): 0.0001

LPINALSNSL (modifications not checked) [Peptide 29.0085, HCV NS5 2474]
IC50 (HLA-B*0702 (human)): 0.22 µM | IC50 (HLA-B*3501 (human) [24]): 18 µM

AACNWTRGER (modifications not checked) [Peptide 24.0103 (HCV NS1/E2 647, …)]
IC50 [25]: 36.7 µM

IAFASRGNH (modifications not checked) [HCV peptide … (position 1925)]
binding affinity ratio (IC50 of standard peptide / IC50 of test peptide) (HLA-A*1101 (human) [26]): 0.0003

ALSTGLIHLH (modifications not checked) [… (HCV polyprotein position 689)]
binding affinity ratio (IC50 of standard peptide / IC50 of test peptide) (HLA-A*1101 (human) [3]): 0.0027

AVCTRGVAK (modifications not checked) [Peptide 1090.23 (HCV LORF 1183, …)]
IC50 [27]: > 30 µM

KTKRNTNRR (modifications not checked) [HCV peptide … (position 10)]
binding affinity ratio (IC50 of standard peptide / IC50 of test peptide) (HLA-A*1101 (human) [26]): 0.01

ASCLRKLGVPPLRVW (modifications not checked)
relative binding (IC50 of standard peptide / IC50 of test peptide) [28]: 0.0007 | relative binding (IC50 of standard peptide / IC50 of test peptide) [29]: 0.073 | relative binding (IC50 of standard peptide / IC50 of test peptide) [30]: 0.029 | relative binding (IC50 of standard peptide / IC50 of test peptide) [31]: 1.9

ITRVESENK (modifications not checked) [HCV peptide … (polyprotein position 2250)]
binding affinity ratio (IC50 of standard peptide / IC50 of test peptide) (HLA-A*3101 (human) [32]): 0.0007 | binding affinity ratio (IC50 of standard peptide / IC50 of test peptide) (HLA-A*6801 (human) [33]): 0.0092

ILGGWVAAQL (modifications not checked) [HCV peptide … (HCV polyprotein position 1816)]
binding affinity ratio (IC50 of standard peptide / IC50 of test peptide) (HLA-A*0201 (human) [34]): 0.043 | binding affinity ratio (IC50 of standard peptide / IC50 of test peptide) (HLA-A*0206 (human)): 0.0005
